Assay results as given in the supplement of paper PMC10065799, “High-throughput profiling of sequence recognition by tyrosine kinases and SH2 domains using bacterial peptide display” (eLife, 2023).

These sequences were tested against MERTK (UniProt Q12866) (assay: phosphorylation enrichment, bacterial display (enrichment ratio); higher = better substrate or ligand; peptides without Tyr show the background).
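Further: 11-residue human phosphosite peptides and single-mutation variants displayed on the E. coli surface, counted by deep sequencing, each peptide's frequency after selection divided by its frequency in the unselected input library; frequency after pTyr selection over input frequency; kinase dosed for 20-30% of maximal phosphorylation in three min.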

Sequence of MERTK (Q12866 whole entry, looked up): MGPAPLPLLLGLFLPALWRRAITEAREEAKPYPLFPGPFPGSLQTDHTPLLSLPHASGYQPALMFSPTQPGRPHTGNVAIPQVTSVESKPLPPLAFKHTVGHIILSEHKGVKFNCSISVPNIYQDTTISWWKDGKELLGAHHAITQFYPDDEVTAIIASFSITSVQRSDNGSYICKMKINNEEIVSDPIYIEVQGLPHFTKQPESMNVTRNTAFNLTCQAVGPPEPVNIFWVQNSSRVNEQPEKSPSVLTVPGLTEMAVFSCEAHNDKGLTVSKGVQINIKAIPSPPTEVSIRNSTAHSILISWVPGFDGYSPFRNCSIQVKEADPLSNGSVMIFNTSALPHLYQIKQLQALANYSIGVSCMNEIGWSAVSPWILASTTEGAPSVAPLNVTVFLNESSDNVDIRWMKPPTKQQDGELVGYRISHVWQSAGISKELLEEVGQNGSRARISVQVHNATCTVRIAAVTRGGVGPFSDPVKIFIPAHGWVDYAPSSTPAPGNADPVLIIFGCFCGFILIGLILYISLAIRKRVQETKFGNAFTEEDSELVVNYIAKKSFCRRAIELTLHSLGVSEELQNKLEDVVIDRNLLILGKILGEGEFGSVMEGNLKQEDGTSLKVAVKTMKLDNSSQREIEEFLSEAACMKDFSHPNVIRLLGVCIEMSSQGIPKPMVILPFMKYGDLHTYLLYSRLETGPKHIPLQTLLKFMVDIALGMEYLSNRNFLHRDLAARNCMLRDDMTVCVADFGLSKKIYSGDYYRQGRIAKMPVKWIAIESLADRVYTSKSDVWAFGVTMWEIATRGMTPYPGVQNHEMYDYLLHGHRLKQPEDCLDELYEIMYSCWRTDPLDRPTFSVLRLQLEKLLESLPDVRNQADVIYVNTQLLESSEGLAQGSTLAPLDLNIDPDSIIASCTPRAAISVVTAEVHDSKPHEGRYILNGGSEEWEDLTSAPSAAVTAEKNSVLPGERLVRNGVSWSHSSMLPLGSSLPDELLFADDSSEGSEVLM

Sequence	phosphorylation enrichment
NSRFTCKLEVK [USH2A_Y3747_Y3747C_YF]	0.449
PCLLRYLQLDF [ASB10_Y457_R453C]	0.733
SLKAFYGEDAK [ALDH3A1_Y272_E270A]	0.332
RFLRGYQQDAY [HLA-A_Y137_R138Q]	0.665
HTLIKYTDGDQ [PUS7L_Y94]	1.16
DPGVSYCTREE [PDHA1_Y301_R302C]	0.451
DNAYQYMLTDR [MYH7_Y164]	1.27
RVAFQYGVTDL [MYBPC3_Y340_I336V]	0.471
RKGIRYLTSGL [PIGA_Y82]	0.57
FEEDSYSHIMA [FDPS_Y388_YF]	0.458
EQFELHCEMGS [CBL_Y371_Y371H_YF]	0.526
CTTIHYNHMCN [TP53_Y234_Y236H]	0.476
AKNKDYMSIIR [GNE_Y197]	0.468
LIPIKYKAMKK [MYD88_Y257]	0.413
INPIIYAFVGG [CCR5_Y297_E302G]	8.42
NTQRPHFKGGG [TYROBP_Y111_Y111H_YF]	0.353

These sequences were tested against FGFR1 (UniProt P11362) in the same assay as above.
Sequence of FGFR1 (P11362 whole entry, looked up): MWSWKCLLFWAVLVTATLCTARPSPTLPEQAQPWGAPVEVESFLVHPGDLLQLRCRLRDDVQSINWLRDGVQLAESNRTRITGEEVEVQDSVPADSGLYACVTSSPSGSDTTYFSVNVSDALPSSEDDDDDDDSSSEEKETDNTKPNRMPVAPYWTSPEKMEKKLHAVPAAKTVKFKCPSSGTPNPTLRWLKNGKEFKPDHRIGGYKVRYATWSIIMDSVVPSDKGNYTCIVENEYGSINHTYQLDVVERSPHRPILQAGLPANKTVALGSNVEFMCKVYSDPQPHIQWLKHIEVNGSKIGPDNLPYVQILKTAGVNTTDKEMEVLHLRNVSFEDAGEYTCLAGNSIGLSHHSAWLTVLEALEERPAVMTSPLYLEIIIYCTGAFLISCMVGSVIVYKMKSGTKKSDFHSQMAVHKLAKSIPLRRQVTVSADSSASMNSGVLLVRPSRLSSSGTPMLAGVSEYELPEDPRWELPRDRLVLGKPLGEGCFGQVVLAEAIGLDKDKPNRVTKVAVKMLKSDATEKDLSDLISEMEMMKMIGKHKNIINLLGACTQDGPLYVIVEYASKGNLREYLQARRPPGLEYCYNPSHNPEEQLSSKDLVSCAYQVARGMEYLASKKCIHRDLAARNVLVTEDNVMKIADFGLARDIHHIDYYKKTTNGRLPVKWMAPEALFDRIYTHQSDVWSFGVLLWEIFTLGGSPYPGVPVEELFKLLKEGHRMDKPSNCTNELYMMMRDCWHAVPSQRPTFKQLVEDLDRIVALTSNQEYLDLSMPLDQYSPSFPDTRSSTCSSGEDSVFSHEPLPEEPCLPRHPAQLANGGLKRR

Sequence	phosphorylation enrichment
NSRFTCKLEVK [USH2A_Y3747_Y3747C_YF]	0.563
PCLLRYLQLDF [ASB10_Y457_R453C]	1.18
SLKAFYGEDAK [ALDH3A1_Y272_E270A]	0.433
RFLRGYQQDAY [HLA-A_Y137_R138Q]	0.548
HTLIKYTDGDQ [PUS7L_Y94]	1.33
DPGVSYCTREE [PDHA1_Y301_R302C]	0.576
DNAYQYMLTDR [MYH7_Y164]	3.6
RVAFQYGVTDL [MYBPC3_Y340_I336V]	0.456
RKGIRYLTSGL [PIGA_Y82]	0.47
FEEDSYSHIMA [FDPS_Y388_YF]	1.01
EQFELHCEMGS [CBL_Y371_Y371H_YF]	0.496
CTTIHYNHMCN [TP53_Y234_Y236H]	0.432
AKNKDYMSIIR [GNE_Y197]	0.432
LIPIKYKAMKK [MYD88_Y257]	0.755
INPIIYAFVGG [CCR5_Y297_E302G]	4.39
NTQRPHFKGGG [TYROBP_Y111_Y111H_YF]	0.318

These sequences were tested against Jak2 (UniProt O60674) in the same assay as above.
Sequence of Jak2 (O60674 whole entry, looked up): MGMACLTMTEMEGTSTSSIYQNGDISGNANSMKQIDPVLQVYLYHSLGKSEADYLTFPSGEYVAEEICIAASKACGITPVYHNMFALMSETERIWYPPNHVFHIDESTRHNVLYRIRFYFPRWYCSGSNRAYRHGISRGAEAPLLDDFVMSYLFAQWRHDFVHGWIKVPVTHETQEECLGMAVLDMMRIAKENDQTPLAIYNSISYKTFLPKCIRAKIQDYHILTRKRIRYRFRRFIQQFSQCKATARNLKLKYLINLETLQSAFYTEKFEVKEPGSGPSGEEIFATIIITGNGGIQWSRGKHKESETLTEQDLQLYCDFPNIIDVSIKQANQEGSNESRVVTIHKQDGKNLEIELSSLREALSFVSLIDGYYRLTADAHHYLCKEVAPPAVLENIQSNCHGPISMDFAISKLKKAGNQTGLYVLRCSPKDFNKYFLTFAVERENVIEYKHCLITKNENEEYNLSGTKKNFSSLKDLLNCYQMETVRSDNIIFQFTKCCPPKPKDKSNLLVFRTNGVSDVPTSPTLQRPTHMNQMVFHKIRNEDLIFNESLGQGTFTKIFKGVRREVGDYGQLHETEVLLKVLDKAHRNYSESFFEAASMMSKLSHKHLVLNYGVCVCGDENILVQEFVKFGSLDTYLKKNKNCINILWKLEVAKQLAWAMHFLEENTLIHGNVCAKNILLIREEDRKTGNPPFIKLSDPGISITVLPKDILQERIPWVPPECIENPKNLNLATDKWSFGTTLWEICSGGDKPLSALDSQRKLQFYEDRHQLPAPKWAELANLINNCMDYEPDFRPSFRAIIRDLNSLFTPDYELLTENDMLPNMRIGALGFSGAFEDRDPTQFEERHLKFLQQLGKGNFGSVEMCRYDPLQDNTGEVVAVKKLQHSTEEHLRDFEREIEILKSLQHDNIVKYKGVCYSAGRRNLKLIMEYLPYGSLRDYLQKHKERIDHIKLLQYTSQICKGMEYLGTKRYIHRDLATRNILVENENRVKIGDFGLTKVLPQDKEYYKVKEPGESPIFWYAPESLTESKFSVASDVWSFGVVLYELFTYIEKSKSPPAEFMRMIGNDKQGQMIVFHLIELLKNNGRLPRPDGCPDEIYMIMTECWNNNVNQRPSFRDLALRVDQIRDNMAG

Sequence	phosphorylation enrichment
NSRFTCKLEVK [USH2A_Y3747_Y3747C_YF]	1.79
PCLLRYLQLDF [ASB10_Y457_R453C]	1.51
SLKAFYGEDAK [ALDH3A1_Y272_E270A]	0.58
RFLRGYQQDAY [HLA-A_Y137_R138Q]	0.803
HTLIKYTDGDQ [PUS7L_Y94]	1.75
DPGVSYCTREE [PDHA1_Y301_R302C]	1.1
DNAYQYMLTDR [MYH7_Y164]	0.85
RVAFQYGVTDL [MYBPC3_Y340_I336V]	1.08
RKGIRYLTSGL [PIGA_Y82]	0.657
FEEDSYSHIMA [FDPS_Y388_YF]	1.06
EQFELHCEMGS [CBL_Y371_Y371H_YF]	1.25
CTTIHYNHMCN [TP53_Y234_Y236H]	0.688
AKNKDYMSIIR [GNE_Y197]	0.706
LIPIKYKAMKK [MYD88_Y257]	0.297
INPIIYAFVGG [CCR5_Y297_E302G]	1.55
NTQRPHFKGGG [TYROBP_Y111_Y111H_YF]	0.553

The sequences below were run on Fer (mouse) in the same assay as above.

Sequence	phosphorylation enrichment
NSRFTCKLEVK [USH2A_Y3747_Y3747C_YF]	0.533
PCLLRYLQLDF [ASB10_Y457_R453C]	0.968
SLKAFYGEDAK [ALDH3A1_Y272_E270A]	0.417
RFLRGYQQDAY [HLA-A_Y137_R138Q]	0.64
HTLIKYTDGDQ [PUS7L_Y94]	0.64
DPGVSYCTREE [PDHA1_Y301_R302C]	0.481
DNAYQYMLTDR [MYH7_Y164]	2.74
RVAFQYGVTDL [MYBPC3_Y340_I336V]	0.576
RKGIRYLTSGL [PIGA_Y82]	0.368
FEEDSYSHIMA [FDPS_Y388_YF]	1.07
EQFELHCEMGS [CBL_Y371_Y371H_YF]	0.577
CTTIHYNHMCN [TP53_Y234_Y236H]	0.369
AKNKDYMSIIR [GNE_Y197]	0.473
LIPIKYKAMKK [MYD88_Y257]	0.405
INPIIYAFVGG [CCR5_Y297_E302G]	6.66
NTQRPHFKGGG [TYROBP_Y111_Y111H_YF]	0.293

What follows are sequences tested against FGFR3 (UniProt P22607) in the same assay as above.
Sequence of FGFR3 (P22607 whole entry, looked up): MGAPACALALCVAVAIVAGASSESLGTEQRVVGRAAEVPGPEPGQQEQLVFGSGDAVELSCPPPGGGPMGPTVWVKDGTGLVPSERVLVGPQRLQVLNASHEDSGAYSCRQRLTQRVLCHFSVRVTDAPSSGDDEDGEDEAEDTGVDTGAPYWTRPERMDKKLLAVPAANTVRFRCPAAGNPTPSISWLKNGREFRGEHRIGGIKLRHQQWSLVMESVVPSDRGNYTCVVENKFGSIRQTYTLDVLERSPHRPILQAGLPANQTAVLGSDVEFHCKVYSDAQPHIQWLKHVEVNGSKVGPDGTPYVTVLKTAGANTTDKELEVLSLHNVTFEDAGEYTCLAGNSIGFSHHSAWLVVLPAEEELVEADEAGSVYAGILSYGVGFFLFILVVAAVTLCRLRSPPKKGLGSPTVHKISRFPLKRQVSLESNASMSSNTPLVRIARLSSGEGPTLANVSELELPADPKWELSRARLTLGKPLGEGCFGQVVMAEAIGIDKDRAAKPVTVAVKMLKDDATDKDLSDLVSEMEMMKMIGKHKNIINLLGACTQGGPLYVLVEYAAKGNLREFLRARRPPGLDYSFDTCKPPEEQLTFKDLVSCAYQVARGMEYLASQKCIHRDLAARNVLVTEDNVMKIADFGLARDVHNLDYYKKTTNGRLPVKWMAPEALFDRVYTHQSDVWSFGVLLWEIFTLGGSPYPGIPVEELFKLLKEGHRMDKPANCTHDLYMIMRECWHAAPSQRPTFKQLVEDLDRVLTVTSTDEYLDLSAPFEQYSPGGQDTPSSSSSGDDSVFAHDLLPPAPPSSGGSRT

Sequence	phosphorylation enrichment
NSRFTCKLEVK [USH2A_Y3747_Y3747C_YF]	1
PCLLRYLQLDF [ASB10_Y457_R453C]	1.14
SLKAFYGEDAK [ALDH3A1_Y272_E270A]	0.538
RFLRGYQQDAY [HLA-A_Y137_R138Q]	0.633
HTLIKYTDGDQ [PUS7L_Y94]	1.14
DPGVSYCTREE [PDHA1_Y301_R302C]	1.12
DNAYQYMLTDR [MYH7_Y164]	2.3
RVAFQYGVTDL [MYBPC3_Y340_I336V]	0.842
RKGIRYLTSGL [PIGA_Y82]	0.688
FEEDSYSHIMA [FDPS_Y388_YF]	1.01
EQFELHCEMGS [CBL_Y371_Y371H_YF]	0.802
CTTIHYNHMCN [TP53_Y234_Y236H]	0.506
AKNKDYMSIIR [GNE_Y197]	0.585
LIPIKYKAMKK [MYD88_Y257]	0.92
INPIIYAFVGG [CCR5_Y297_E302G]	3.51
NTQRPHFKGGG [TYROBP_Y111_Y111H_YF]	0.443

The sequences below were run against Hck (UniProt P08631) in the same assay as above.
Sequence of Hck (P08631 whole entry, looked up): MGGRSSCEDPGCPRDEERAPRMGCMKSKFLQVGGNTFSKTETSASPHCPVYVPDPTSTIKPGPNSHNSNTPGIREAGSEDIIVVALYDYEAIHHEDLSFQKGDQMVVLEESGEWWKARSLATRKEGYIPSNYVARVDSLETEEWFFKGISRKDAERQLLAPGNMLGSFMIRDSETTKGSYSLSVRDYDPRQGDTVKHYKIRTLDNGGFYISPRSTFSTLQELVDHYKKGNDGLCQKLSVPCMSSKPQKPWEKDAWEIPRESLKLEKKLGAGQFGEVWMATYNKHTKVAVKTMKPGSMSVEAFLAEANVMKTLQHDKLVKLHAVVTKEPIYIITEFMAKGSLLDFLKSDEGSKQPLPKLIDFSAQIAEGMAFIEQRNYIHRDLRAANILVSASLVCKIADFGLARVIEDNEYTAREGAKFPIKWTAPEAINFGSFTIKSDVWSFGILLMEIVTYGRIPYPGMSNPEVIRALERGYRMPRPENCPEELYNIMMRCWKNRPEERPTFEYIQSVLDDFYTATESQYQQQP

Sequence	phosphorylation enrichment
NSRFTCKLEVK [USH2A_Y3747_Y3747C_YF]	0.508
PCLLRYLQLDF [ASB10_Y457_R453C]	0.783
SLKAFYGEDAK [ALDH3A1_Y272_E270A]	0.456
RFLRGYQQDAY [HLA-A_Y137_R138Q]	0.404
HTLIKYTDGDQ [PUS7L_Y94]	1.01
DPGVSYCTREE [PDHA1_Y301_R302C]	0.688
DNAYQYMLTDR [MYH7_Y164]	0.608
RVAFQYGVTDL [MYBPC3_Y340_I336V]	0.599
RKGIRYLTSGL [PIGA_Y82]	0.645
FEEDSYSHIMA [FDPS_Y388_YF]	0.972
EQFELHCEMGS [CBL_Y371_Y371H_YF]	0.58
CTTIHYNHMCN [TP53_Y234_Y236H]	0.414
AKNKDYMSIIR [GNE_Y197]	0.483
LIPIKYKAMKK [MYD88_Y257]	0.342
INPIIYAFVGG [CCR5_Y297_E302G]	6.35
NTQRPHFKGGG [TYROBP_Y111_Y111H_YF]	0.407

These sequences were tested on c-Src in the same assay as above.

Sequence	phosphorylation enrichment
NSRFTCKLEVK [USH2A_Y3747_Y3747C_YF]	0.504
PCLLRYLQLDF [ASB10_Y457_R453C]	0.502
SLKAFYGEDAK [ALDH3A1_Y272_E270A]	0.489
RFLRGYQQDAY [HLA-A_Y137_R138Q]	0.715
HTLIKYTDGDQ [PUS7L_Y94]	1.09
DPGVSYCTREE [PDHA1_Y301_R302C]	0.449
DNAYQYMLTDR [MYH7_Y164]	0.767
RVAFQYGVTDL [MYBPC3_Y340_I336V]	0.493
RKGIRYLTSGL [PIGA_Y82]	0.648
FEEDSYSHIMA [FDPS_Y388_YF]	0.721
EQFELHCEMGS [CBL_Y371_Y371H_YF]	0.528
CTTIHYNHMCN [TP53_Y234_Y236H]	0.422
AKNKDYMSIIR [GNE_Y197]	0.452
LIPIKYKAMKK [MYD88_Y257]	0.302
INPIIYAFVGG [CCR5_Y297_E302G]	5.05
NTQRPHFKGGG [TYROBP_Y111_Y111H_YF]	0.448

What follows are sequences tested on c-Abl (mouse) in the same assay as above.

Sequence	phosphorylation enrichment
NSRFTCKLEVK [USH2A_Y3747_Y3747C_YF]	1.48
PCLLRYLQLDF [ASB10_Y457_R453C]	1.12
SLKAFYGEDAK [ALDH3A1_Y272_E270A]	0.562
RFLRGYQQDAY [HLA-A_Y137_R138Q]	0.843
HTLIKYTDGDQ [PUS7L_Y94]	1.35
DPGVSYCTREE [PDHA1_Y301_R302C]	0.714
DNAYQYMLTDR [MYH7_Y164]	0.526
RVAFQYGVTDL [MYBPC3_Y340_I336V]	0.764
RKGIRYLTSGL [PIGA_Y82]	0.438
FEEDSYSHIMA [FDPS_Y388_YF]	0.671
EQFELHCEMGS [CBL_Y371_Y371H_YF]	0.995
CTTIHYNHMCN [TP53_Y234_Y236H]	0.574
AKNKDYMSIIR [GNE_Y197]	0.676
LIPIKYKAMKK [MYD88_Y257]	0.325
INPIIYAFVGG [CCR5_Y297_E302G]	14.4
NTQRPHFKGGG [TYROBP_Y111_Y111H_YF]	1.01
